Test results reported in the supplement of paper PMC9112550, “Optimization of the antimicrobial peptide Bac7 by deep mutational scanning” (BMC Biology, 2022).

System: Escherichia coli TOP10
Experiment: shrunken log2 fold change of peptide-encoding DNA abundance (4.5 h post-induction vs induction); higher = less antimicrobial activity (less host growth inhibition)
Conditions: time post-induction: 4.5 h; library: site-saturation at positions 5, 18, 19, 20
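Note: peptides expressed intracellularly from a pBAD plasmid library in pooled LB shake-flask culture, induced with 0.3% L-arabinose, DNA abundance read by NGS, three biological replicates, DESeq2 with apeglm shrinkage.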

RRIRPRPPRLPRPRPRPYRWPRP
shrunken log2 fold change: 0.087

RRIRHRPPRLPRPRPRPNDDPRP
shrunken log2 fold change: -0.259

RRIRPRPPRLPRPRPRPAERPRP
shrunken log2 fold change: 0.291

RRIRIRPPRLPRPRPRPVFAPRP
shrunken log2 fold change: 0.0576

RRIRWRPPRLPRPRPRPAVTPRP
shrunken log2 fold change: 0.599

RRIRRRPPRLPRPRPRPMGQPRP
shrunken log2 fold change: 0.267

RRIRTRPPRLPRPRPRPDQDPRP
shrunken log2 fold change: -0.0328

RRIRVRPPRLPRPRPRPLEEPRP
shrunken log2 fold change: 0.0793

RRIRFRPPRLPRPRPRPSSLPRP
shrunken log2 fold change: -0.856

RRIRQRPPRLPRPRPRPGEIPRP
shrunken log2 fold change: -0.366

RRIRVRPPRLPRPRPRPHQLPRP
shrunken log2 fold change: -0.243

RRIRSRPPRLPRPRPRPQIMPRP
shrunken log2 fold change: 1.11

RRIRERPPRLPRPRPRPRPNPRP
shrunken log2 fold change: 0.451

RRIRQRPPRLPRPRPRPTWHPRP
shrunken log2 fold change: 0.0897

RRIRSRPPRLPRPRPRPDDQPRP
shrunken log2 fold change: 0.143

RRIRTRPPRLPRPRPRPWWDPRP
shrunken log2 fold change: 0.132

RRIRKRPPRLPRPRPRPDNVPRP
shrunken log2 fold change: -0.0064

RRIRERPPRLPRPRPRPTQGPRP
shrunken log2 fold change: 0.555

RRIRQRPPRLPRPRPRPQHVPRP
shrunken log2 fold change: 0.00911

RRIRWRPPRLPRPRPRPRHTPRP
shrunken log2 fold change: -0.0876

RRIRARPPRLPRPRPRPKLHPRP
shrunken log2 fold change: 0.366

RRIRFRPPRLPRPRPRPTDWPRP
shrunken log2 fold change: 0.335

RRIRPRPPRLPRPRPRPSAAPRP
shrunken log2 fold change: 0.487

RRIRNRPPRLPRPRPRPSNCPRP
shrunken log2 fold change: -0.801

RRIRERPPRLPRPRPRPEQIPRP
shrunken log2 fold change: -0.207

RRIRNRPPRLPRPRPRPGTTPRP
shrunken log2 fold change: 0.0321

RRIRPRPPRLPRPRPRPDRQPRP
shrunken log2 fold change: 0.099

RRIRERPPRLPRPRPRPVQQPRP
shrunken log2 fold change: -0.168

RRIRVRPPRLPRPRPRPRISPRP
shrunken log2 fold change: -0.187

RRIRSRPPRLPRPRPRPDGQPRP
shrunken log2 fold change: -0.00208

RRIRHRPPRLPRPRPRPAHWPRP
shrunken log2 fold change: -0.179

RRIRRRPPRLPRPRPRPFERPRP
shrunken log2 fold change: 0.0145

RRIRRRPPRLPRPRPRPVYIPRP
shrunken log2 fold change: -0.535

RRIRMRPPRLPRPRPRPYFSPRP
shrunken log2 fold change: -0.177

RRIRPRPPRLPRPRPRPMGQPRP
shrunken log2 fold change: 0.0687

RRIRVRPPRLPRPRPRPMQKPRP
shrunken log2 fold change: 0.533

RRIRYRPPRLPRPRPRPRTQPRP
shrunken log2 fold change: 0.0444

RRIRQRPPRLPRPRPRPHAYPRP
shrunken log2 fold change: -0.352

RRIRTRPPRLPRPRPRPTTEPRP
shrunken log2 fold change: -0.16

RRIRIRPPRLPRPRPRPSTYPRP
shrunken log2 fold change: -1.63

RRIRNRPPRLPRPRPRPVSWPRP
shrunken log2 fold change: 0.162

RRIRERPPRLPRPRPRPMSSPRP
shrunken log2 fold change: -0.000155

RRIRPRPPRLPRPRPRPWPNPRP
shrunken log2 fold change: -0.0364

RRIRVRPPRLPRPRPRPRLPPRP
shrunken log2 fold change: 0.636

RRIRFRPPRLPRPRPRPFDIPRP
shrunken log2 fold change: -0.182

RRIRIRPPRLPRPRPRPMVGPRP
shrunken log2 fold change: 0.105

RRIRERPPRLPRPRPRPLMCPRP
shrunken log2 fold change: -0.267

RRIRMRPPRLPRPRPRPLYEPRP
shrunken log2 fold change: 0.362

RRIRHRPPRLPRPRPRPLCDPRP
shrunken log2 fold change: -0.397

RRIRWRPPRLPRPRPRPMKTPRP
shrunken log2 fold change: -0.0156

RRIRWRPPRLPRPRPRPHKAPRP
shrunken log2 fold change: -0.000946

RRIRPRPPRLPRPRPRPPKPPRP
shrunken log2 fold change: 0.0495

RRIRARPPRLPRPRPRPYLIPRP
shrunken log2 fold change: -0.659

RRIRPRPPRLPRPRPRPMSCPRP
shrunken log2 fold change: -0.043

RRIRTRPPRLPRPRPRPLTQPRP
shrunken log2 fold change: -0.309

RRIRVRPPRLPRPRPRPIYFPRP
shrunken log2 fold change: -0.23

RRIRPRPPRLPRPRPRPRQYPRP
shrunken log2 fold change: -0.257

RRIRYRPPRLPRPRPRPKHCPRP
shrunken log2 fold change: -0.611

RRIRGRPPRLPRPRPRPSREPRP
shrunken log2 fold change: 0.51

RRIRHRPPRLPRPRPRPICHPRP
shrunken log2 fold change: -0.265

RRIRLRPPRLPRPRPRPPRVPRP
shrunken log2 fold change: 0.536

RRIRMRPPRLPRPRPRPRWYPRP
shrunken log2 fold change: 0.0191

RRIRDRPPRLPRPRPRPFFMPRP
shrunken log2 fold change: 0.033

RRIRWRPPRLPRPRPRPMFMPRP
shrunken log2 fold change: -0.209

RRIRYRPPRLPRPRPRPIMIPRP
shrunken log2 fold change: -0.0191

RRIRARPPRLPRPRPRPFAFPRP
shrunken log2 fold change: 0.552

RRIRSRPPRLPRPRPRPHIIPRP
shrunken log2 fold change: -0.443

RRIRYRPPRLPRPRPRPISCPRP
shrunken log2 fold change: -0.202

RRIRARPPRLPRPRPRPCHNPRP
shrunken log2 fold change: -0.161

RRIRPRPPRLPRPRPRPWKNPRP
shrunken log2 fold change: -0.0413

RRIRSRPPRLPRPRPRPHHRPRP
shrunken log2 fold change: -0.43

RRIRPRPPRLPRPRPRPFEKPRP
shrunken log2 fold change: 0.0465

RRIRRRPPRLPRPRPRPCARPRP
shrunken log2 fold change: 0.395

RRIRFRPPRLPRPRPRPVTMPRP
shrunken log2 fold change: -0.295

RRIRPRPPRLPRPRPRPVPKPRP
shrunken log2 fold change: 0.34

RRIRSRPPRLPRPRPRPPQVPRP
shrunken log2 fold change: -0.0457

RRIRVRPPRLPRPRPRPHCWPRP
shrunken log2 fold change: 0.0268

RRIRTRPPRLPRPRPRPKNDPRP
shrunken log2 fold change: -0.362

RRIRFRPPRLPRPRPRPFSDPRP
shrunken log2 fold change: -0.229

RRIRLRPPRLPRPRPRPYCYPRP
shrunken log2 fold change: -0.238

RRIRCRPPRLPRPRPRPAVMPRP
shrunken log2 fold change: 0.067

RRIRARPPRLPRPRPRPVLCPRP
shrunken log2 fold change: 0.43

RRIRARPPRLPRPRPRPNEIPRP
shrunken log2 fold change: -0.179

RRIRERPPRLPRPRPRPLECPRP
shrunken log2 fold change: -0.498

RRIRKRPPRLPRPRPRPRQFPRP
shrunken log2 fold change: 0.192

RRIRHRPPRLPRPRPRPWLPPRP
shrunken log2 fold change: -0.0823

RRIRVRPPRLPRPRPRPVYVPRP
shrunken log2 fold change: -0.0177

RRIRHRPPRLPRPRPRPGTCPRP
shrunken log2 fold change: -0.318

RRIRVRPPRLPRPRPRPVFVPRP
shrunken log2 fold change: -0.0229

RRIRERPPRLPRPRPRPEGSPRP
shrunken log2 fold change: 0.0172

RRIRVRPPRLPRPRPRPRIPPRP
shrunken log2 fold change: 0.183

RRIRIRPPRLPRPRPRPTAGPRP
shrunken log2 fold change: -0.167

RRIRHRPPRLPRPRPRPGIPPRP
shrunken log2 fold change: 0.0292

RRIRNRPPRLPRPRPRPMIEPRP
shrunken log2 fold change: 0.00437

RRIRCRPPRLPRPRPRPVRMPRP
shrunken log2 fold change: -0.053

RRIRDRPPRLPRPRPRPAARPRP
shrunken log2 fold change: 0.518

RRIRMRPPRLPRPRPRPIKKPRP
shrunken log2 fold change: 0.0441

RRIRHRPPRLPRPRPRPWIDPRP
shrunken log2 fold change: -0.00448

RRIRMRPPRLPRPRPRPPDKPRP
shrunken log2 fold change: 1.03

RRIRKRPPRLPRPRPRPAPDPRP
shrunken log2 fold change: 0.598

RRIRERPPRLPRPRPRPGHGPRP
shrunken log2 fold change: -0.281

RRIRIRPPRLPRPRPRPFHNPRP
shrunken log2 fold change: -0.213

RRIRWRPPRLPRPRPRPPMPPRP
shrunken log2 fold change: 0.444

RRIRERPPRLPRPRPRPMPMPRP
shrunken log2 fold change: -0.0464

RRIRNRPPRLPRPRPRPHSPPRP
shrunken log2 fold change: -0.415

RRIRARPPRLPRPRPRPYTMPRP
shrunken log2 fold change: -0.301

RRIRLRPPRLPRPRPRPADCPRP
shrunken log2 fold change: 0.142

RRIRDRPPRLPRPRPRPDKEPRP
shrunken log2 fold change: -0.0124

RRIRGRPPRLPRPRPRPPPIPRP
shrunken log2 fold change: 1.16

RRIRLRPPRLPRPRPRPTYEPRP
shrunken log2 fold change: -0.308

RRIRQRPPRLPRPRPRPHCSPRP
shrunken log2 fold change: -0.104

RRIRMRPPRLPRPRPRPWVIPRP
shrunken log2 fold change: 0.0191

RRIRGRPPRLPRPRPRPRMEPRP
shrunken log2 fold change: 0.483

RRIRPRPPRLPRPRPRPSTSPRP
shrunken log2 fold change: -0.0506

RRIRWRPPRLPRPRPRPPIDPRP
shrunken log2 fold change: 0.1

RRIRERPPRLPRPRPRPGATPRP
shrunken log2 fold change: 0.148

RRIRDRPPRLPRPRPRPMVEPRP
shrunken log2 fold change: 0.465

RRIRWRPPRLPRPRPRPCSIPRP
shrunken log2 fold change: -0.134

RRIRRRPPRLPRPRPRPQNLPRP
shrunken log2 fold change: -0.276

RRIRFRPPRLPRPRPRPEEMPRP
shrunken log2 fold change: -0.00182

RRIRRRPPRLPRPRPRPFLDPRP
shrunken log2 fold change: 0.0172

RRIRGRPPRLPRPRPRPIKWPRP
shrunken log2 fold change: 0.434

RRIRHRPPRLPRPRPRPNFKPRP
shrunken log2 fold change: -0.189

RRIRPRPPRLPRPRPRPTSKPRP
shrunken log2 fold change: 0.188

RRIRIRPPRLPRPRPRPYQMPRP
shrunken log2 fold change: -0.35

RRIRCRPPRLPRPRPRPGMWPRP
shrunken log2 fold change: 0.211

RRIRYRPPRLPRPRPRPSNEPRP
shrunken log2 fold change: -0.474

RRIRTRPPRLPRPRPRPADKPRP
shrunken log2 fold change: -0.257

RRIRARPPRLPRPRPRPDWEPRP
shrunken log2 fold change: 0.334

RRIRERPPRLPRPRPRPIDQPRP
shrunken log2 fold change: 0.00338

RRIRERPPRLPRPRPRPMAEPRP
shrunken log2 fold change: 0.0131

RRIRGRPPRLPRPRPRPYLGPRP
shrunken log2 fold change: 0.167

RRIRMRPPRLPRPRPRPIFTPRP
shrunken log2 fold change: -0.0423

RRIRHRPPRLPRPRPRPHAEPRP
shrunken log2 fold change: -0.0216

RRIRGRPPRLPRPRPRPLYVPRP
shrunken log2 fold change: 0.0628

RRIRHRPPRLPRPRPRPDWSPRP
shrunken log2 fold change: 0.00911

RRIRDRPPRLPRPRPRPIGSPRP
shrunken log2 fold change: -0.693

RRIRERPPRLPRPRPRPINDPRP
shrunken log2 fold change: -0.223

RRIRDRPPRLPRPRPRPHPQPRP
shrunken log2 fold change: 0.256

RRIRERPPRLPRPRPRPPDWPRP
shrunken log2 fold change: 0.674

RRIRFRPPRLPRPRPRPMDCPRP
shrunken log2 fold change: 0.00893

RRIRDRPPRLPRPRPRPYTKPRP
shrunken log2 fold change: -1.06

RRIRLRPPRLPRPRPRPYPPPRP
shrunken log2 fold change: -0.866

RRIRCRPPRLPRPRPRPPSIPRP
shrunken log2 fold change: 0.0499

RRIRFRPPRLPRPRPRPKDCPRP
shrunken log2 fold change: 0.104

RRIRLRPPRLPRPRPRPIFLPRP
shrunken log2 fold change: -0.333

RRIRIRPPRLPRPRPRPGLDPRP
shrunken log2 fold change: 0.0575

RRIRPRPPRLPRPRPRPMQMPRP
shrunken log2 fold change: 0.00304

RRIRYRPPRLPRPRPRPKFTPRP
shrunken log2 fold change: -0.328

RRIRPRPPRLPRPRPRPTTMPRP
shrunken log2 fold change: -0.126
